US6379959B1, “Metalocarboxypeptidase inhibitors and derived molecules used as antitumor agents” (Universitat Autonoma de Barcelona, priority 1996, dated 2002)
Several values for one entry are separate records, joined by “and”; a condition that tells them apart may be missing. Equal entries are not always repeated. Positions of bridges follow the written chain, without caps; N, C: chain ends. No end group written: not given here.

What was measured:
Capan-1 cell line = test: Proliferation of Capan-1 cells pretreated with PCI; format: cell-based, human; conditions: pretreatment 50 μg/mL of PCI, 28-34 days; treatment 5-18 days
Description: In the case of the Capan-1 cell line, two different tests and which are described as follows were carried out:
1. 5,000 cells were seed in 2 wells of a plate of 12 wells. One of the wells was grown with medium (non-pretreated cells), and the other with medium with 50 μg/mL of PCI (pretreated cells). The cells were kept in such conditions for the period of time that is indicated in the results section as time of pretreatment.
2. Twice a week, the medium of the wells was replaced by fresh medium with or without PCI, and each time that in any of the wells confluence was reached, the cells were trypsinized and 1/10 of them was placed again in the original well, the other cells being discarded or frozen.
3. Once the desired time of pretreatment elapsed, the cells were trypsinized and counted, being employed to start proliferation tests such as those described in Section 4.B.2.1. The number of cells that was placed per well in the proliferation plate (of 96 wells) was 2,000, 7 replicas being put for each treatment. The cells underwent treatment with or without various PCI concentrations.
4. Once the treatment time elapsed, the number of cells per well was estimated as previously described in Section 4.B.2.a.

p53 = test: Gene expression analysis by Northern transfer, p53 probe; format: cell-based, human; conditions: for beta counts, p53 probe: 12 days, Capan-1 (control 138)
Description: To verify whether the PCI plays any role in signal transduction, studies of gene expression were carried out by Northern transfer. The probes were: β2-microglobulin, p53 and trypsin. The β2-microglobulin is a constitutive gene that is used as a sample loading control in the gel. p53 is a transcription factor which, among other functions, controls the state of the genomic DNA and the cell cycle (Bates, S. & Vousden, K. H. (1996) Curr. Opin. Genet. Develop., 6: 12-19). If the DNA is damaged, p53 induces its repair and, if it is excessively damaged, it provokes programmed cellular death (apoptosis). Trypsin is a marker of pancreatic cells of the acinar type. The trypsin is not expressed by all the tumoral cells and it is believed that it is expressed by the cells with metastatic power and/or invasive power (Fernández, E. et al., (1994) Cancer, 73: 2285-2295). The probes employed are described as follows:
In the first place, 3×10^6 cells of the human pancreatic adenocarcinoma cell line Capan-1 were placed in each one of the 12 flasks of 150 cm^2. […] They were maintained in culture for 12 days period, changing their medium every 4 days, adding fresh PCI. Once the treatment was completed, the cells were trypsinized and the sediment of the cells was kept at −80° C. Afterwards, the extraction of the RNA was carried out.
The quantifying of the hybridized filters with the respective probes was done using a Betascope 601 blot Analyzer counter (Betagen, USA). The counting time was 45 min for the hybridized filter with the probe p53 and β2-microglobuline and 2 h for the trypsin probe.
Assuming that the counts of the β2-Microglobuline are an indication of the total amount of poly(A^+) RNA, the data may be standardized as a percentage of counts of the band compared to the β2-microglobuline counts of the same cells, giving a value which depends on the abundance of the specific mRNA in relation to the total of mRNA.

EGF receptor = EGF receptor (Homo sapiens, UniProt P00533); test: Kinase activity (phosphorilation) of the EGF receptor, A431 cells; format: cell-based; design: endogenous in cells; host or cells: A431 (squamous cancer cell line)
Description: The material and protocol used have been those described by Donato, N. J. et al. (1989) J. Cell. Biochem., 41: 139-157.
1.c. Wash the cells twice more with tempered PBS and add new serum-free medium. Immediately after, add PCI to the concentration which is going to be studied in the cultures to be treated and incubate for 10 min at 37° C.
2.a. […] Incubate for 1 h in ice.
3.a. Prepare the reaction buffer. Each sample requires 50μL.
3.k. Dry the gel (for at least 3 h) and autoradiograph it for 10 min for the A431 cell line and 2-4 h for the Capan-1 cell line. Count the radiactivity of the filter using a beta counter.
The kinase activity in absence of PCI (basal) is taken as 100% and the values of kinase activity have been compared in various concentrations of PCI in relation to this basal activity.

PCI: potato carboxypeptidase inhibitor, isoform IIa, obtained by recombinant DNA techniques in E. coli (SEQ ID NO.2) (EQHADPICNKPCKTHDDCSGAWFCQACWNSARTCGPYVG; disulfide 12-27, 18-34, 8-24)
final number of cells, pretreated cells cultivated afterwards in absence of PCI vs non-pretreated cells (Capan-1 cell line): approximately half | higher transcription of p53 in relation to the control group cells (treatment/control) (p53; 1 mg/mL PCI): 2.8 times | p53/b2 (counts of one band in relation to those of β2-microglobuline) (p53; 1 mg/mL PCI (control 0.1445)): 0.4040 | beta counts, p53 probe (p53; 1 mg/mL PCI): 882 | higher transcription of p53 in relation to the control group cells (treatment/control) (p53; 10 mg/mL PCI): 1.2 times | beta counts, p53 probe (p53; 10 mg/mL PCI): 1111 | Kinase activity (%) (EGF receptor; 1 ng/ml EGF + 1 mg/mL PCI): 126% | Kinase activity (%) (EGF receptor; 1 ng/ml EGF + 10 mg/mL PCI): 108% | Kinase activity (%) (EGF receptor; 1 ng/ml EGF + 50 mg/mL PCI): 53% | Kinase activity (%) (EGF receptor; basal, incubation with PCI 1 mg/mL, 10 min, 100% = absence of PCI): 68% | Kinase activity (%) (EGF receptor; basal, incubation with PCI 50 mg/mL, 10 min, 100% = absence of PCI): 78% and 61% and 80% and 77% | Kinase activity (%) (EGF receptor; basal, incubation with PCI 100 mg/mL, 10 min, 100% = absence of PCI): 29% | kinase activity of the receptor under EGF (EGF receptor; highest dose of PCI, 50 μg/mL, with EGF): reduced to half the basal activity
